Drawing on patent publication US20170137818, “APTAMER INHIBITING BIOLOGICAL ACTIVITY OF AUTOTAXIN BY BINDING WITH AUTOTAXIN, AND USE THEREOF” (RIBOMIC INC., published 2017), this text covers activity for 23 molecules.

For this data set, the target named is autotaxin (ENPP2/NPP2) (Homo sapiens, UniProt Q13822 Q13822:36-863). The experiment in a line: inhibition; LPA production, 0.10 uM aptamer, ~92% serum, 37C 3 h.

B1: 12(58) (ssDNA)
DNA: CCTGGACGGAACCAGAATACTTTTGGTCTCCAGG
modifications: 2'-OMe C7,G9,A14,G15,A19,C20,A32,G33,G34; P-methyl C2; idT 5' and 3'
For the molecule B1, the activity came to 69 % inhibition.

B2: 12(71) (ssDNA)
DNA: B1 DNA
modifications: 2'-OMe C7,G9,A14,G15,A19,C20,U29,A32,G33,G34; idT 5' and 3'
B2 registered an activity of 31 % inhibition.

B3: 12(64) (ssDNA)
DNA: B1 DNA
modifications: 2'-OMe C7,G9,A14,A19,C20,A32,G33,G34; P-methyl G15; idT 5' and 3'
On to B3, for which the activity is 63 % inhibition.

B4: 12(66) (ssDNA)
DNA: B1 DNA
modifications: 2'-OMe C7,G9,A14,G15,A19,C20,A32,G33,G34; 5' 40 kDa PEG (GL2-400TS) via ssH linker; 3' idT
Turning to B4, the activity stood at 77 % inhibition.

B5: 12(82) (ssDNA)
DNA: B1 DNA
modifications: 2'-OMe C7,G9,A14,G15,A19,C20,A32,G33,G34; PS after T24; idT 5' and 3'
In the case of B5, the activity was determined as 51 % inhibition.

B6: 12(62) (ssDNA)
DNA: B1 DNA
modifications: 2'-OMe C7,G9,A14,G15,A19,C20,A32,G33,G34; P-methyl C28; idT 5' and 3'
For the molecule B6, the activity was found to be 75 % inhibition.

B7: 12(80) (ssDNA)
DNA: B1 DNA
modifications: 2'-OMe C7,G9,A14,G15,A19,C20,A32,G33,G34; PS after C12; idT 5' and 3'
The molecule B7 yielded an activity of 85 % inhibition.

B8: 12(81) (ssDNA)
DNA: B1 DNA
modifications: 2'-OMe C7,G9,A14,G15,A19,C20,A32,G33,G34; PS after C13; idT 5' and 3'
Molecule B8 came in with an activity of 70 % inhibition.

B9: 12(67) (ssDNA)
DNA: B1 DNA
modifications: 2'-OMe C7,G9,A14,G15,A19,C20,A32,G33,G34; 5' 40 kDa PEG (GL4-400TS) via ssH linker; 3' idT
Turning to B9, the activity was found to be 74 % inhibition.

B10: 12(75) (ssDNA)
DNA: B1 DNA
modifications: 2'-OMe C7,G9,A14,G15,U18,A19,C20,A32,G33,G34; idT 5' and 3'
The molecule B10 yielded an activity of 65 % inhibition.

B11: 12(70) (ssDNA)
DNA: B1 DNA
modifications: 2'-OMe C7,G9,A14,G15,A19,C20,U23,A32,G33,G34; idT 5' and 3'
As for B11, the activity is 9 % inhibition.

B12: 12(60) (ssDNA)
DNA: B1 DNA
modifications: 2'-OMe C7,G9,A14,G15,A19,C20,A32,G33,G34; P-methyl T18; idT 5' and 3'
The molecule B12 gave an activity of 50 % inhibition.

B13: 12(65) (ssDNA)
DNA: B1 DNA
modifications: 2'-OMe C7,G9,A14,G15,A19,A32,G33,G34; P-methyl C20; idT 5' and 3'
The molecule B13 came in with an activity of 57 % inhibition.

B14: 12(85) (ssDNA)
DNA: B1 DNA
modifications: 2'-OMe C7,G9,A14,G15,A19,C20,A32,G33,G34; PS after T27; idT 5' and 3'
B14 gave an activity of 68 % inhibition.

B15: 12(63) (ssDNA)
DNA: B1 DNA
modifications: 2'-OMe C7,G9,A14,G15,A19,C20,G33,G34; P-methyl A32; idT 5' and 3'
In turn, B15 returned an activity of 59 % inhibition.

B16: 12(79) (ssDNA)
DNA: B1 DNA
modifications: 2'-OMe C7,G9,A14,G15,A19,C20,A32,G33,G34; PS after A11; idT 5' and 3'
Regarding B16, the activity came out at 37 % inhibition.

B17: 12(83) (ssDNA)
DNA: B1 DNA
modifications: 2'-OMe C7,G9,A14,G15,A19,C20,A32,G33,G34; PS after G25; idT 5' and 3'
With B17, the activity came out at 54 % inhibition.

B18: 12(76) (ssDNA)
DNA: B1 DNA
modifications: 2'-OMe C7,G9,A14,G15,A19,C20,A32,G33,G34; PS after A6; idT 5' and 3'
B18 registered an activity of 67 % inhibition.

B19: 12(68) (ssDNA)
DNA: B1 DNA
modifications: 2'-OMe U3,C7,G9,A14,G15,A19,C20,A32,G33,G34; idT 5' and 3'
The molecule B19 had an activity of 53 % inhibition.

B20: 12(78) (ssDNA)
DNA: B1 DNA
modifications: 2'-OMe C7,G9,A14,G15,A19,C20,A32,G33,G34; PS after A10; idT 5' and 3'
Turning to B20, the activity turned out to be 62 % inhibition.

B21: 12(73) (ssDNA)
DNA: B1 DNA
modifications: 2'-OMe C7,G9,A14,G15,A19,C20,U22,A32,G33,G34; idT 5' and 3'
As for B21, the activity worked out at 11 % inhibition.

B22: 12(74) (ssDNA)
DNA: B1 DNA
modifications: 2'-OMe C7,G9,A14,G15,A19,C20,U21,A32,G33,G34; idT 5' and 3'
On to B22, for which the activity was determined as 31 % inhibition.

B23: 12(59) (ssDNA)
DNA: B1 DNA
modifications: 2'-OMe C7,G9,A14,G15,A19,C20,A32,G33,G34; P-methyl G4; idT 5' and 3'
The molecule B23 yielded an activity of 71 % inhibition.
